We go through one molecule from patent US20140248269A1 (NATIONAL CEREBRAL AND CARDIOVASCULAR CENTER, published 2014).

The target in this assay is T1, natriuretic peptide receptor GC-A (human, UniProt P16066 33-1061).
T1 sequence (looked up): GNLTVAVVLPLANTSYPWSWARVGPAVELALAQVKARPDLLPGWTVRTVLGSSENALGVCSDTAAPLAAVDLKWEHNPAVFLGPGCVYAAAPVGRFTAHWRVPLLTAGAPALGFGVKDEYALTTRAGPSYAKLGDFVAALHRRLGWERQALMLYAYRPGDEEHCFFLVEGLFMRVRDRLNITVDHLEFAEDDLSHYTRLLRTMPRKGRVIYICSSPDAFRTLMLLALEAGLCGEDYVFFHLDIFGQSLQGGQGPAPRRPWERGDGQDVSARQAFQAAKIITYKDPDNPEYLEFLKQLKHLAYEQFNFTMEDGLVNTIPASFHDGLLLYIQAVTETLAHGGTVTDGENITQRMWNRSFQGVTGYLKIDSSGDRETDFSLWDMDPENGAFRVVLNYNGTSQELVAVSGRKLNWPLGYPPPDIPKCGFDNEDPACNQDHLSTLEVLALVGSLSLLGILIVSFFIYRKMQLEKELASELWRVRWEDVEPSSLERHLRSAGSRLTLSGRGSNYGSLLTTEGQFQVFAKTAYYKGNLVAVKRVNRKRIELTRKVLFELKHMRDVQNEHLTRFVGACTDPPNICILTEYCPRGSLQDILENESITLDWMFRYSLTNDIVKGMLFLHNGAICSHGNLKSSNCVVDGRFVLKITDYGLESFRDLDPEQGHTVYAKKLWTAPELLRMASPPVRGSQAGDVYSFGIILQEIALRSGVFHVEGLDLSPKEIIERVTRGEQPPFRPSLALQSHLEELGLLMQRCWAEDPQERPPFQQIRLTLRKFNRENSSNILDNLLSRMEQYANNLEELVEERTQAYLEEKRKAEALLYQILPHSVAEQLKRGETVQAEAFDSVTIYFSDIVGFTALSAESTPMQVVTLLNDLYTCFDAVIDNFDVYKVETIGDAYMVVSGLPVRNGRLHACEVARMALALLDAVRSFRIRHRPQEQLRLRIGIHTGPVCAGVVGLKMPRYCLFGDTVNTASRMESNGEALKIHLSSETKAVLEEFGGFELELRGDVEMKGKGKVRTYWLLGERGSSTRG
The experiment in a line: cell-based or functional assay.

With SLRRSSCFGLKLDRIGAQSGLGCNSFRY [LKL-ANP (mutant in which the amino acids at positions 10 to 12 of hANP are replaced with LKL)], the “ratio of suppression of EMT induced by TGF-β1 in terms of E-cad/Ncad (A549 cells, 1 µM)” value was determined as 52.9%.
